± gives the uncertainty stated by the source.

This series can be described thus: amyloid nucleation score (Sup35N fusion, yeast selection) (log enrichment); library NNK1; higher = more nucleation; inactive = no reads after selection. An outline of the steps:
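Nucleation score is defined as the DiMSum log enrichment of output over input reads, with centring on the mode score of non-aggregating sequences. A minimum of 100 input reads was required for each sequence. Reads came from Illumina sequencing of plasmid inserts from psi-negative yeast expressing Sup35N fused to peptides of 20 random codons, induced with 100 μM copper sulfate for 24 hours and grown 7 days at 30°C on medium lacking adenine and uracil.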
As for VMLVVMGLFELFWLSNVV, the amyloid nucleation score result is “inactive”.
The substance VMVWLGDREAGLCESELGAG had an amyloid nucleation score of 0.12 ± 0.45.
The result for VMWSVDFWYPAMSGVIPDQF reads 1.45 ± 0.65; that for VNAIYDSWLSL, “inactive”; that for VNLFLVMKFK, 6.676 ± 0.043.
Next, VNLRKEPDNRGLGLDFRLN: 0.001 ± 0.78; VNRALAFNCWSALILGNAVV: -0.608 ± 0.31.
The result for VNRYFVFVSVMIYMLCESRF reads 0.295 ± 0.75; that for VNSNPSSGAFWI, 0.571 ± 0.87.
Consider VNVIWAFYNN, for which the amyloid nucleation score was found to be 5.7 ± 0.072.
Regarding VNVSVDFKREMRIPWLAGIC, the amyloid nucleation score is -0.651 ± 0.67.
Next, VNVTCMFWD: 4.05 ± 0.058; VNYISHTQMKTR: 0.913 ± 0.41.
Next, VNYPEDPTSKEIIRHSLGTG: -1.13 ± 2.4.
With VPAVSCMVFTAQFDSGVYSC, the amyloid nucleation score is -0.03 ± 0.73.
Next, VPFLYVG: -0.792 ± 0.62; VPFSGSDNGGTYDCLDWNEG: -0.299 ± 0.63.
As for VPIFVNKFVDYTSLSCMHCL, the amyloid nucleation score came out at 7.379 ± 0.06.
The result for VPIVGDLEKVMGCYSYWANK reads -0.011 ± 0.18; that for VPSFITYLVVDLWDALQGYH, 0.409 ± 0.42.
Take VPVGRWRSWICVRIRL: the amyloid nucleation score turned out to be 0.831 ± 0.65.
The result for VPVWFSTSISQWSNLQ reads -1.09 ± 2.4.
For VPWFLHELQTVLAKVNRGQR, the amyloid nucleation score was -0.165 ± 0.33.
Next, VQEFYDLKEYWS: -0.265 ± 0.35.
Next, VQFGQIIEWVFHMLVSTTTI: -0.022 ± 0.36; VQKKRLDGLVKRGLYIRAIG: 1.2 ± 0.69; VQNGGSLTMPRALLANTWMS: -0.671 ± 0.42.
Next, VRAELVTVGCLRRATYYRPK: -0.319 ± 1.2; VRAEVGQDRVGRM: 0.09 ± 0.44; VRAFGYDGLHLVITCYHCRH: 0.726 ± 0.77.
VRCNC showed an amyloid nucleation score of 0.261 ± 0.5.
Next, VRDSVTLFPK: -0.277 ± 0.77.
The result for VRFIFSRSIGLQ reads -0.361 ± 0.42; that for VRFWTLEFSPVRFSS, -1.11 ± 0.86; that for VRGLWFYN, 0.088 ± 0.72.
Next, VRGVARYNRKFGDCFYPTHG: 0.065 ± 1.5.
As to VRLIRTPSDIGTYIIGCREG, the amyloid nucleation score was -0.065 ± 0.38.
The result for VRLKVKCIMIH reads 0.962 ± 0.72.
Next, VRLLTFDITSLFRVFYVKHR: 0.103 ± 0.67.
Next, VRLSFPKRLSISSAVCNRGS: 0.279 ± 0.62.
VRMKIGNFSCCRYWKPPLYT yielded an amyloid nucleation score of 1.29 ± 0.61.
The result for VRMSFRLVEPY reads -0.301 ± 0.81.
The result for VRNMVFSSGRQLYMWDKLLK reads 1.82 ± 0.66; that for VRQNNGQMFFYWSWFIGNNP, 8.12 ± 0.063.
Next, VRSDAVKEARISFCLRSKRF: 0.423 ± 1.4.
As to VRSFDDLRVNVSRSRCAMAQ, the amyloid nucleation score was -0.906 ± 0.71.
The result for VRSFLPMYMF reads -0.376 ± 1.7; that for VRSGDCYRSNSKSVFVMAIR, 0.617 ± 0.49; that for VRSRLLQNLSDIPNQPIRWD, -0.105 ± 0.33.
Next, VSAVDMMYHLLHRILGIIAC: 1.48 ± 0.55; VSCCSNLVY: 0.144 ± 0.26.
The result for VSCIV reads 0.198 ± 0.58.
VSFSCLMSPE: the amyloid nucleation score stood at 0.126 ± 0.32.
The result for VSFYGGFGKK reads -0.116 ± 0.64; that for VSITRVGTFIRYLFCIARCW, -0.866 ± 0.9; that for VSKSFVSQARLFYIQGDHCL, 1.42 ± 0.73.
The result for VSMHYYAGTYSLNNSLV reads -0.819 ± 1.1.
Next, VSNSWAWPFRRNCGSECWFT: 0.228 ± 0.33.
VSRTLAWLGMSRLNGSYGVC gave an amyloid nucleation score of -0.197 ± 0.41.
The result for VSRWHQCADPPRCGHRCIWA reads 0.299 ± 0.51.
Next, VSSGHLA: 0.032 ± 0.42; VSSRITPS: 1.11 ± 0.39.
The result for VSSVGKMPDALRVKAKWIFM reads 0.141 ± 0.29; that for VSSVGVDMMYLTTRGGCHSI, “inactive”.
In the case of VSVGVILCSVRNKVNRGMDD, the amyloid nucleation score entry was “inactive”.
Next, VSVMFYPFVFHWYGCLLTSA: 2.96 ± 0.12.
The result for VSVNTVFH reads 0.36 ± 0.44; that for VSVTVLGRWR, 3.55 ± 0.19.
The result for VSWYSSVIKL reads “inactive”; that for VTGHV, -0.019 ± 0.49; that for VTGKTLTLIEFFIHSQPLSR, 0.217 ± 0.32.
In turn, VTIAHNGNLSCRLYTYVQVR displayed an amyloid nucleation score of 0.515 ± 0.57.
Next, VTLKVFCIVEV: 0.314 ± 0.44.
Next, VTMLRSFMHELHSGLKKDLK: 2.06 ± 0.11; VTMVGRSLKLLMTYETFNTW: -0.21 ± 0.24; VTNFNESLGKFSRNTLLRS: -0.713 ± 1.1.
With VTNVSLDCGALCSCELCKKS, the amyloid nucleation score turned out to be 7.155 ± 0.063.
The result for VTRDMCGYLVCFWQYAG reads 7.728 ± 0.045.
The result for VTRFSAGTITVLTRDWRANC reads -0.486 ± 1.6.
On to VTRTSYWGVFWSHSWRTWM, for which the amyloid nucleation score entry was “inactive”.
Substance VTSSFWFFNDADSRQ yielded an amyloid nucleation score of 3.24 ± 0.1.
The result for VTTRLPIYRVKF reads 0.228 ± 0.37; that for VVAFYL, 1.91 ± 0.37.
The result for VVDMTVGFENARCGMREVWT reads -0.328 ± 1.3; that for VVEARWNKAMHTNFLNVRES, 0.601 ± 0.65; that for VVGELLGGTNRFGKRVSSMA, -0.057 ± 0.26.
The result for VVGRTEEEHLQHPSWCMCAL reads 0.128 ± 1.
As to VVLWLVDFPSPCPELKNLHF, the amyloid nucleation score result was “inactive”.
Next, VVRFCYTEEVRVFNQASLRE: 0.134 ± 0.5; VVSLGNSSDYCHWKLILPTV: 0.151 ± 0.4.
Next, VVSYSHAIVRLVLSCDMGRC: 0.441 ± 0.47; VVVFSNYNFVGKCIHVNSEL: 7.351 ± 0.07; VVVSNTLECSTSRVNRKVRT: -0.97 ± 0.72.
The result for VWGINILMSFPIV reads 5.674 ± 0.053.
For VWMYMHAFCYSTGRRKAMPG, the amyloid nucleation score is -1.76 ± 0.77.
For VWRKTLRWPLGPWAGRS, the amyloid nucleation score was -1.11 ± 0.46.
The result for VWSAMDKALLDSGDGSPMG reads 0.138 ± 0.36; that for VWTDGGSYFRDLNRICGV, 3.74 ± 0.084; that for VWYFISTYCWDRPKVILSGV, -1.39 ± 1.9.
Next, VYACLSHSVRV: 1.05 ± 0.97; VYAYTQLKQGRRHEQGTWS: “inactive”; VYFIVVVKGRSGLFMLSFGD: -0.997 ± 1.4.
The result for VYFYVQPNGFMEIGASMIAA reads -0.431 ± 1.4.
In the case of VYHVTWRLPF, the amyloid nucleation score stood at 3.4 ± 0.12.
The result for VYINVYHYWRFSKKYVGKLL reads 0.318 ± 0.17; that for VYKRFSTTMCLMTSSEWVDS, 2.45 ± 0.068; that for VYLACVSSPCLKS, -0.2 ± 0.79.
Next, VYLWGPKVYRSDWMGRHFK: 0.855 ± 0.72; VYVKYP: -0.125 ± 0.77.
The substance WADTIFCTSACNNVSGIRWG showed an amyloid nucleation score of -0.681 ± 0.58.
Next, WAMSTFSVYSKRTFVARWDK: 0.048 ± 0.29.
WASEMRHGWRAHNIYVGEDC came in with an amyloid nucleation score of 0.937 ± 0.59.
WCCWVMCV: the amyloid nucleation score was 6.726 ± 0.061.
Next, WCISTIGWRTDGCD: “inactive”.
Next, WCMATCLIMVCANYVICLVG: 0.927 ± 0.55; WCNTMFWHS: 1.09 ± 0.22.
Next, WCRDIPWMVLNTVGRY: -0.547 ± 0.63.
With WDRASYIEYRSFIEWRRLPK, the amyloid nucleation score was -0.006 ± 0.55.
Next, WDVIYVFFIHIYQSVGS: -0.48 ± 0.85.
The result for WELVCISFLVRDTCVVI reads 0.263 ± 0.47; that for WESDIFFMIGLVQRRQLTGP, 2.91 ± 0.17; that for WESSAAVDTCTILKMTEKVG, 0.579 ± 1.2.
Next, WEVERDTSSPSEIVINR: -0.063 ± 0.89; WEWSTGFRCC: 0.566 ± 0.48.
Consider WFELWKSVRGMENYAYVARC, for which the amyloid nucleation score was -0.043 ± 0.29.
Next, WFGLTALGDTFYGLYFCKKL: -0.848 ± 0.78.
The result for WFNRSICSPNSHNDSSRFNQ reads “inactive”; that for WFPCVADINICPLGLYHSEG, 8.033 ± 0.062.
Next, WFSRTPWYFVFRCNDDMDCS: “inactive”; WFSYYLLFRYNDNLSRAERS: 0.456 ± 0.61.
For the substance WFYICVVSFDLGIKRRYRHR, the amyloid nucleation score entry is “inactive”.
Substance WGIPMVGSRGPMCTKVGFRK had an amyloid nucleation score of 0.141 ± 0.35.
Next, WGLSQSLCHSRNNLHNWISG: 0.207 ± 0.53.
For WGNFAVSWVFMEVNACRLRW, the amyloid nucleation score was -0.323 ± 0.66.
Next, WGRNMKYVRTGVGLINDLVR: “inactive”; WGWHNYWDGSVVVWRSATAH: -0.414 ± 0.75.
The result for WGYDTHLLMNLRNVCIGFLR reads -0.431 ± 0.7; that for WHEHSYLENSIYITRIKINV, 3.18 ± 0.15.
The result for WHEMKY reads 1.46 ± 0.13.

The record behind these values is the supplement of paper PMC12042874.
